Reference: patent US20180092961

Columns and labels:
murine histone H3 = murine histone H3 (UniProt P68433)
[1] = target: calf thymus histone H3 (Roche) (UniProt P68432)
[2] = system: murine histone H2A released from activated RAW264.7 macrophages
[3] = target: calf thymus histone H4 (Roche) (UniProt P62803)
[4] = target: murine histone H4 released from activated RAW264.7 macrophages (UniProt P62806)

For “human recombinant activated protein C (Xigris)”, which “new protein bands in conditioned medium in the presence of APC, Edman sequencing” value (murine histone H3) is on record?
Its value is “The N-terminal sequence of the 13 kD band protein was KSAPATGGV (SEQ ID NO:15) which matches the murine histone H3 internal sequence (Lys27-Lys36)”.

What about the “cleavage in a purified system, SDS-PAGE” value [1] of the same substance?
The value was “APC cleaved histone H3 and H4 in a dose dependent fashion”.

And the “new protein bands in conditioned medium in the presence of APC, MS/MS after tryptic digestion” value [2]?
Its value is “three peptide sequences ... in this protein band that matchs the murine histone H2A protein sequence (amino acids 21-29, 82-88 and 100-118)”.

And the “cleavage in a purified system, SDS-PAGE” value [3]?
The value was “APC cleaved histone H3 and H4 in a dose dependent fashion”.

What about the “cleavage, SDS-PAGE” value [3] of the same substance?
Its value is “Purified histone H4 was also cleaved by APC and a cluster of 4-7 KD fragments could be found on SDS-PAGE”.

And the “cleavage, Western blot of conditioned medium” value [4]?
Its value is “histone H4 was released into the conditioned medium and was cleaved by APC”.

And the “new protein bands in conditioned medium in the presence of APC, Edman sequencing” value [4]?
The value was “N-terminal sequence of the 10 kD band protein which matches the murine histone H4 internal sequence (Val21-Ile34)”.
